# Measured values published in EP4813396A2 (Amphivena Therapeutics, Inc., dated 2026).
# Assays:
# [1] = molecular target: T1, human CD33 on cells (human, UniProt P20138 18-364); test: cell-based or functional assay
# [2] = molecular target: T2, human CD3 on T cells (human, UniProt P07766 23-207); test: cell-based or functional assay
# [3] = molecular target: T2, human CD3 on T cells; test: flow cytometry, human T-cells (as headed in Table 10)
# [4] = molecular target: T1, human CD33 on cells; test: flow cytometry, HL-60 cells
# [5] = molecular target: T2, human CD3 on T cells; test: flow cytometry, titration on human CD3+ T cells (Jurkat per paragraph 124/paragraph 125)
# [6] = molecular target: T1, human CD33 on cells; test: flow cytometry, titration on U-937 cells
# [7] = molecular target: T1, human CD33 on cells; test: flow cytometry, titration on HL-60 cells
# [8] = molecular target: T1, human CD33 on cells; test: flow cytometry, titration on KG-1 cells
# [9] = molecular target: cynomolgus CD33 on CHO cells (cynomolgus monkey); test: flow cytometry; KD on CHO-cynomolgus CD33 cells divided by KD on CHO-human CD33 cells
# T1 sequence (P20138 18-364): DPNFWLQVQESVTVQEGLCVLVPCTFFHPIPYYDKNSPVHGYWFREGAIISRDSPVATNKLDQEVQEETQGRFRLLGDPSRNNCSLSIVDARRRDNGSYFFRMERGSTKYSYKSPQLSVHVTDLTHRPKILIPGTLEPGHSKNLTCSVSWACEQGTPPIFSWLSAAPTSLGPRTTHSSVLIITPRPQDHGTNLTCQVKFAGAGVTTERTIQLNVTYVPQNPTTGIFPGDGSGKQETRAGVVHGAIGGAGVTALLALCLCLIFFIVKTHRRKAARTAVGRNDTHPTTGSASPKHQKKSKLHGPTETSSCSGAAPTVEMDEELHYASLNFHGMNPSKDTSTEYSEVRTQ
# T2 sequence (P07766 23-207): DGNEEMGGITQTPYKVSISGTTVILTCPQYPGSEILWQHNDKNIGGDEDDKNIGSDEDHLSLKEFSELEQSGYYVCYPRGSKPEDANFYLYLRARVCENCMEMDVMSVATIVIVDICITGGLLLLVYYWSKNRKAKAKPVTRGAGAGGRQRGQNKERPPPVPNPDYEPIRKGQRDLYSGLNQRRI
Binder,EC50 on HL-60 [pM] (cytotoxicity) [1],CD25 Induction EC50 (pM) [2] [pM],CD69 Induction EC50 (pM) [2] [pM],T cell Proliferation in PBMC EC50 (pM) [2] [pM],Kd [3] [nM],Kd [4] [nM],Kd [5] [nM],Kd [6] [nM],Kd [7] [nM],Kd [8] [nM],KD ratio cynoCD33/ huCD33 [9]
"CD33/CD3 tandem diabody 09 (bispecific antibody, Non-covalent homodimer; domain order 1; also called TandAb 09; tandem diabody 9) DIQMTQSPSSLSASVGDRVTITCRSSTGAVTTSNYANWVQQKPGKAPKGLIGGTNKRAPGVPSRFSGSLIGDKATLTISSLQPEDFATYYCALWYSNLWVFGQGTKVEIKGGSGGSQVQLVQSGAEVKKPGASVKVSCKASGYTFTSYDINWVRQAPGQGLEWMGWMNPNSGNTGFAQKFQGRVTMTRDTSTSTVYMELSSLRSEDTAVYYCARDRANTDFSYGMDVWGQGTLVTVSSGGSGQSVLTQPPSASGTPGQRVTISCSGSRSNIGSNTVNWYQQLPGTAPKLLIYGNNQRPSGVPDRFSGSKSGSSASLAISGLQSEDEADYYCATWDDSLIGWVFGGGTKLTVLGGSGGSEVQLVESGGGLVQPGGSLRLSCAASGFTFSTYAMNWVRQAPGKGLEWVGRIRSKYNNYATYYADSVKDRFTISRDDSKNSLYLQMNSLKTEDTAVYYCARHGNFGNSYVSWFAYWGQGTLVTVSSAAAGSHHHHHH",6.8,11,7,9,2.4,0.5,2.4,2.2,0.5,0.3,1
"CD33/CD3 tandem diabody 15 (bispecific antibody, Non-covalent homodimer; domain order 1; also called TandAb 15) DIQMTQSPSSLSASVGDRVTITCRSSTGAVTTSNYANWVQQKPGKAPKALIGGTNKRAPGVPSRFSGSLIGDKATLTISSLQPEDFATYYCALWYSNLWVFGQGTKVEIKGGSGGSQVQLVQSGAEVKKPGASVKVSCKASGYTFTSYDINWVRQAPGQGLEWMGWMNPNSGNTGFAQKFQGRVTMTRDTSTSTVYMELSSLRSEDTAVYYCARDRANTDYSFGMDVWGQGTLVTVSSGGSGQSVLTQPPSASGTPGQRVTISCSGSRSNIGSNTVNWYQQLPGTAPKLLIYGNNQRPSGVPDRFSGSKSGTSASLAISGLQSEDEADYYCATWDDSLIGWVFGGGTKLTVLGGSGGSEVQLVESGGGLVQPGGSLRLSCAASGFTFSTYAMNWVRQAPGKGLEWVGRIRSKYNNYATYYADSVKDRFTISRDDSKNSLYLQMNSLKTEDTAVYYCARHGNFGNSYVSYFAYWGQGTLVTVSSAAAGSHHHHHH",1.8,6,7,7,1.3,0.4,1.3,0.9,0.4,0.3,1.1
"CD33/CD3 tandem diabody 11 (bispecific antibody, Non-covalent homodimer; domain order 1; also called TandAb 11) DIQMTQSPSSLSASVGDRVTITCRSSTGAVTTSNYANWVQQKPGKAPKGLIGGTNKRAPGVPSRFSGSLIGDKATLTISSLQPEDFATYYCALWYSNLWVFGQGTKVEIKGGSGGSQVQLVQSGAEVKKPGASVKVSCKASGYTFTSYDINWVRQAPGQGLEWMGWMNPNSGNTGFAQKFQGRVTMTRDTSTSTVYMELSSLRSEDTAVYYCARDRANTDYSLGMDVWGQGTLVTVSSGGSGQSVLTQPPSASGTPGQRVTISCSGSRSNIGSNTVNWYQQLPGTAPKLLIYGNNQRPSGVPDRFSGSKSGTSASLAISGLQSEDEADYYCATWDDSLIGWVFGGGTKLTVLGGSGGSEVQLVESGGGLVQPGGSLRLSCAASGFTFSTYAMNWVRQAPGKGLEWVGRIRSKYNNYATYYADSVKDRFTISRDDSKNSLYLQMNSLKTEDTAVYYCARHGNFGNSYVSWFAYWGQGTLVTVSSAAAGSHHHHHH",5.9,11,5,6,2.6,0.3,2.6,0.6,0.3,0.5,1.2
"CD33/CD3 tandem diabody 21 (bispecific antibody, Non-covalent homodimer; domain order 1; also called TandAb 21) DIQMTQSPSSLSASVGDRVTITCRSSTGAVTTSNYANWVQQKPGKAPKALIGGTNKRAPGVPSRFSGSLIGDKATLTISSLQPEDFATYYCALWYSNLWVFGQGTKVEIKGGSGGSQVQLVQSGAEVKKPGSSVKVSCKASGGTFSSYAISWVRQAPGQGLEWMGGIYPIFGSANYAQKFQGRVTITADESTSTAYMELSSLRSEDTAVYYCAREYYYDSSEWAFDIWGQGTLVTVSSGGSGQSVLTQPPSASGTPGQRVTISCSGSSSNIGSNIVNWYQQLPGTAPKLLIYSNNQRPSGVPDRFSGSKSGTSASLAISGLQSEDEADYYCAAWDDSLKGYVFGGGTKLTVLGGSGGSEVQLVESGGGLVQPGGSLRLSCAASGFTFSTYAMNWVRQAPGKGLEWVGRIRSKYNNYATYYADSVKDRFTISRDDSKNSLYLQMNSLKTEDTAVYYCARHGNFGNSYVSYFAYWGQGTLVTVSSAAAGSHHHHHH",7.6,,225,500,2.1,9.7,2.1,80.2,9.7,25.1,0.9
"CD33/CD3 tandem diabody 24 (bispecific antibody, Non-covalent homodimer; domain order 1; also called TandAb 24) DIQMTQSPSSLSASVGDRVTITCRSSTGAVTTSNYANWVQQKPGKAPKALIGGTNKRAPGVPSRFSGSLIGDKATLTISSLQPEDFATYYCALWYSNLWVFGQGTKVEIKGGSGGSQVQLVQSGAEVKKPGSSVKVSCKASGGTFDSYAISWVRQAPGQGLEWMGGIIPIFGSAHYSQKFQGRVTITADESTSTAYMELSSLRSEDTAVYYCAREYYYDSSEWAFDIWGQGTLVTVSSGGSGQSVLTQPPSASGTPGQRVTISCSGSSSNIGDNVVNWYQQLPGTAPKLLIYSTNKRPSGVPDRFSGSKSGSSASLAISGLQSEDEADYYCAAWDDSLSAYVFGGGTKLTVLGGSGGSEVQLVESGGGLVQPGGSLRLSCAASGFTFSTYAMNWVRQAPGKGLEWVGRIRSKYNNYATYYADSVKDRFTISRDDSKNSLYLQMNSLKTEDTAVYYCARHGNFGNSYVSYFAYWGQGTLVTVSSAAAGSHHHHHH",9.6,,57,264,2.3,5.6,2.3,39.5,5.6,12.4,1.8
"CD33/CD3 tandem diabody 22 (bispecific antibody, Non-covalent homodimer; domain order 1; also called TandAb 22) DIQMTQSPSSLSASVGDRVTITCRSSTGAVTTSNYANWVQQKPGKAPKALIGGTNKRAPGVPSRFSGSLIGDKATLTISSLQPEDFATYYCALWYSNLWVFGQGTKVEIKGGSGGSQVQLVQSGAEVKKPGSSVKVSCKASGGTFSSYGISWVRQAPGQGLEWMGGIIPIFGSAHYAQKFQGRVTITADESTSTAYMELSSLRSEDTAVYYCAREYYYDSSEWAFDIWGQGTLVTVSSGGSGQSVLTQPPSASGTPGQRVTISCSGSSSNIGSNTVKWYQQLPGTAPKLLIYSNNQRSSGVPDRFSGSKSGSSASLAISGLQSEDEADYYCAAWDDSLNGYVFGGGTKLTVLGGSGGSEVQLVESGGGLVQPGGSLRLSCAASGFTFSTYAMNWVRQAPGKGLEWVGRIRSKYNNYATYYADSVKDRFTISRDDSKNSLYLQMNSLKTEDTAVYYCARHGNFGNSYVSYFAYWGQGTLVTVSSAAAGSHHHHHH",3.2,10,4,7,4.1,0.7,4.1,8.6,0.7,2,0.6
"CD33/CD3 tandem diabody 20 (bispecific antibody, Non-covalent homodimer; domain order 1; also called TandAb 20) DIQMTQSPSSLSASVGDRVTITCRSSTGAVTTSNYANWVQQKPGKAPKGLIGGTNKRAPGVPSRFSGSLIGTDFTLTISSLQPEDFATYYCALWYSNLWVFGQGTKVEIKGGSGGSQVQLVQSGAEVKKPGASVKVSCKASGYTFTSYYMHWVRQAPGQGLEWMGIINPSGGSTSYAQKFQGRVTMTRDTSTSTVYMELSSLRSEDTAVYYCARDVVPAAIDYYGMDVWGQGTTVTVSSGGSGQSVLTQPPSASGTPGQRVTISCSGSSSNIGSNTVNWYQQLPGTAPKLLIYSDNQRPSGVPDRFSGSKSGSSASLAISGLQSDDEADYYCATWDDSLNGAVFGGGTKLTVLGGSGGSEVQLVESGGGLVQPGGSLRLSCAASGFTFSTYAMNWVRQAPGKGLEWVGRIRSKYNNYATYYADSVKDRFTISRDDSKNSLYLQMNSLKTEDTAVYYCARHGNFGNSYVSWFAYWGQGTLVTVSS",10,98,75,19,144,4.1,144,7.2,4.1,7,33.8
